Data reported in the supplement of paper PMC9732359.
± gives the uncertainty stated by the source.

Assay: protein stability index of a GFP-peptide fusion (yeast GPS) (PSI 1-4); higher = more stable; sorted into four equal gates, so the index is relative within each strain
In short: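 For each peptide, the protein stability index sums the read frequency in every gate after multiplying it by the gate number. Read frequencies came from plasmids that were PCR-amplified from each gate and Illumina-sequenced, with reads assigned to strains by barcodes. The gates were four equal bins of GFP/Cherry fluorescence ratio applied to mid-log yeast in leucine-free medium carrying a pooled library of tiled 17-residue yeast protein peptides fused downstream of GFP on a Cherry-expressing plasmid.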

| Sequence | protein stability index (doa10∆) | protein stability index (pdr5∆) | protein stability index (san1∆) | protein stability index (ubr1∆) |
| --- | --- | --- | --- | --- |
| AVAHHTDCKFIRVSGAE [RPT6] | 3.04 ± 0.13 | 3.21 ± 0.16 | 3.19 ± 0.14 | 2.92 ± 0.11 |
| LQQELATTQDQVASIIE [NUT2] | 2.77 ± 0.059 | 2.95 ± 0.043 | 3.23 ± 0.053 | 2.98 ± 0.037 |
| VTPNDKIPEREEKSNEV [SIR4] |  | 3.16 ± 0.24 | 3.42 ± 0.21 |  |
| SLRRIRDEMSKAELPQW [MED8] | 1.98 ± 0.071 | 2.36 ± 0.055 | 2.33 ± 0.072 | 1.92 ± 0.04 |
| SEILIISSLMFDEEFDP [IRR1] | 2.5 ± 0.094 | 2.63 ± 0.095 | 2.67 ± 0.098 | 2.97 ± 0.07 |
| RSTDEFNGAQLKAVTVE [RPT5] | 2.86 ± 0.29 | 3.71 ± 0.24 |  | 2.06 ± 0.19 |
| EMSNKVLKVDKRFMNTS [BRR2] | 2.9 ± 0.04 | 2.96 ± 0.05 | 2.99 ± 0.038 | 2.93 ± 0.039 |
| VRTNTLTKAAIVQIDAT [RPS8A] | 2.233 ± 0.022 | 2.54 ± 0.023 | 2.37 ± 0.026 | 2.297 ± 0.019 |
| FSLLVKAEIPPEYAKVG [SIN4] | 2.54 ± 0.063 | 2.45 ± 0.045 | 2.52 ± 0.057 | 2.72 ± 0.036 |
| ESKFILEALRQNYRLDG [RRP45] |  |  | 2.95 ± 0.28 |  |
| GSGSRLNRLPAASLGDM [RPL23A] | 2.28 ± 0.17 | 2.6 ± 0.18 | 2.66 ± 0.24 | 3.12 ± 0.22 |
| INNLPPEKEASSATIVL [YCG1] | 2.55 ± 0.16 | 2.88 ± 0.14 | 2.29 ± 0.19 | 2.52 ± 0.073 |
| EQTRTILSVKLAELINM [SRB6] |  |  | 2.91 ± 0.24 |  |
| RATNCRKRKCGHTNQLR [RPL40A] | 3.25 ± 0.092 | 3.13 ± 0.058 | 3.12 ± 0.048 | 3.17 ± 0.051 |
| VSPAFRVQVGDIVTVGQ [RPS11A] | 2.49 ± 0.091 | 2.96 ± 0.093 | 2.55 ± 0.14 | 2.42 ± 0.078 |
| SRGGVTQVRVEFLEDTS [RPS28A] | 3.41 ± 0.071 | 3.15 ± 0.058 | 3.16 ± 0.052 | 3.22 ± 0.05 |
| LPKYKEKKAASAKQTAP [MED7] | 2.71 ± 0.095 | 2.97 ± 0.078 | 2.74 ± 0.056 | 2.61 ± 0.066 |
| WCQEAFPSSETTSLNPI [BRR2] | 3.23 ± 0.11 | 3.33 ± 0.097 | 3.48 ± 0.11 | 3.23 ± 0.17 |
| YPVRIPRLDTSKEFSAY [YJR042W/NUP85] | 2.84 ± 0.077 | 2.4 ± 0.061 | 2.51 ± 0.075 | 2.91 ± 0.058 |
| QMIQQRHQQLLRSRLQQ [SNF5] | 2.08 ± 0.12 | 2.14 ± 0.15 | 2.71 ± 0.15 | 3.02 ± 0.12 |
| STGAADGGYNAQLAKAK [SMC2] | 3.31 ± 0.15 | 3.47 ± 0.11 | 3.22 ± 0.084 | 3.3 ± 0.13 |
| LINLAKTRVGSVTAQVY [RPC82] | 2.41 ± 0.096 | 1.66 ± 0.065 | 1.16 ± 0.18 | 1.45 ± 0.11 |

| Sequence | protein stability index (doa10∆) | protein stability index (pdr5∆) | protein stability index (san1∆) | protein stability index (ubr1∆) |
| --- | --- | --- | --- | --- |
| GRGGSGWKPYYKLFIWL [YML031W/NDC1] | 1.5 ± 0.055 | 1.78 ± 0.052 | 1.41 ± 0.089 | 1.31 ± 0.049 |
| IYNNIVSNIEGILDEIM [RGR1] | 2.72 ± 0.08 | 2.09 ± 0.066 | 2.15 ± 0.098 | 2.46 ± 0.05 |
| TVTSLDVVYALKRQGRT [HHF1] | 3.55 ± 0.18 | 3.26 ± 0.13 | 3.18 ± 0.086 | 2.31 ± 0.076 |
| TGGQTIDNGTGRTGNGN [MED6] | 3.06 ± 0.13 | 2.82 ± 0.066 | 3.26 ± 0.079 | 2.72 ± 0.063 |
| EDYPMSSEIKIYYNELQ [SIR4] | 1.95 ± 0.13 | 3.16 ± 0.13 | 2.53 ± 0.25 | 3.02 ± 0.079 |
| AGAVAPEDIWVRAVNTG [RPP0] |  |  | 1.93 ± 0.28 | 1.31 ± 0.29 |
| LKWSACTSLMDIIVAIK [IRR1] | 2.65 ± 0.14 | 2.72 ± 0.057 | 2.44 ± 0.16 | 2.83 ± 0.071 |
| TSSRGRDHKSYSQSPPR [SMC4] | 2.65 ± 0.046 | 2.81 ± 0.056 | 2.59 ± 0.088 | 2.83 ± 0.038 |
| KALVLFVPVPALSAYHK [RPS7B] | 2.13 ± 0.063 | 2.51 ± 0.072 | 2.12 ± 0.12 | 2.4 ± 0.041 |
| EATSNTNSEDKLSKVQL [MED4] | 2.82 ± 0.13 | 2.92 ± 0.071 | 2.77 ± 0.087 | 2.93 ± 0.075 |
| DLFTHLWNQWLKLNTSL [SRP68] | 1.76 ± 0.048 | 2.05 ± 0.047 | 2.27 ± 0.066 | 1.83 ± 0.038 |
| QYSLERNSPFWWTNSHH [PRP8] | 2.56 ± 0.078 | 2.79 ± 0.065 | 2.4 ± 0.057 | 2.69 ± 0.052 |
| SVRIDGRKVLQKVQGES [SIR4] | 2.75 ± 0.089 | 3.11 ± 0.067 | 2.98 ± 0.066 | 2.88 ± 0.064 |
| PEESKPINLQNGEEDEV [YLR335W/NUP2] | 2.9 ± 0.075 | 2.92 ± 0.077 | 3.1 ± 0.046 | 3.1 ± 0.062 |
| WFCPCHGSHYDISGRIR [RIP1] |  | 2.31 ± 0.18 | 2.64 ± 0.25 |  |
| MKTQRFVSNMGFDIQKS [SIR4] | 2.63 ± 0.069 | 2.24 ± 0.058 | 2.5 ± 0.083 | 2.01 ± 0.04 |
| VMFATNRPNTLDPALLR [RPT1] | 2.81 ± 0.075 | 3.05 ± 0.079 | 2.9 ± 0.062 | 2.91 ± 0.073 |
| STYKHDRGIANIRNNIE [SRB4] | 3.41 ± 0.19 | 3.27 ± 0.14 | 2.95 ± 0.14 | 3.49 ± 0.13 |
| NSKPEKSSDSNDSNPSF [YLR335W/NUP2] | 2.47 ± 0.056 | 2.62 ± 0.064 | 2.25 ± 0.061 | 2.76 ± 0.036 |
| DDDDSRKSAPVDSWDRE [SKP1] | 3.15 ± 0.047 | 3.21 ± 0.048 | 3.21 ± 0.048 | 3.23 ± 0.044 |
| EKGSWEQLSPQDVLQML [BRR2] | 3.05 ± 0.12 | 3.27 ± 0.15 | 3.42 ± 0.12 | 3.03 ± 0.088 |
